Measurements published in US11807881B2, “Polypeptide, fusion polypeptide, and antibiotic against gram-negative bacteria comprising same” (priority 2020, dated 2023).

Key:
Type in all cases: cell-based
gram negative bacterium = assay: CFU reduction evaluation on various gram negative bacterium
Procedure: For this, Endolysin LNT101 and LNT102 at a concentration of 2 μM and each 1×10^6 CFU of Pseudomonas aeruginosa (PA01; ATCC 15692), Acinetobacter baumannii (ATCC 17978), Escherichia coli (ATCC 8739), Klebsiella pneumoniae (ATCC 13883), Enterobacter aerogenes (CCARM 16006), and Salmonella enteritidis (ATCC 13076) was added in reaction buffer (20 mM Tris-Cl, pH 7.5) so that the final volume was 200 μl, and it was left at 37° C. for 2 hours. In 2 hours, the number of colonies of each gram negative bacterium was confirmed, and the result was shown in FIG. 8 (in FIG. 8, PA90 represents endolysin LNT101 and mtPA90 represents endolysin LNT102, respectively).
The endolysin LNT102 at a concentration of 0.1, 0.5, 2.5 μM, and each 1×10^6 CFU of Pseudomonas aeruginosa, Acinetobacter baumannii, and Escherichia coli was added in reaction buffer (20 mM Tris-Cl, pH 7.5) so that the final volume was 200 μl, and it was left at 37° C. for 2 hours.
(§1) In order to confirm the killing ability against gram negative bacterium of the fusion polypeptide LNT103 prepared in Example 3.2, CFU reduction evaluation was performed for various gram negative bacterium. In order to perform the CFU reduction evaluation, 2 μM of each of LNT101, LNT102, and LNT103 prepared in Example 3, and 1×10^6 CFU of each of Pseudomonas aeruginosa (PA01; ATCC 15692), Acinetobacter baumannii (ATCC 17978), Escherichia coli (ATCC 8739), Klebsiella pneumoniae (ATCC 13883), and Enterobacter aerogenes (CCARM 16006) were added to reaction buffer (20 mM Tris-Cl, pH7.5) so that the final volume was 200 μl, and it was left at 37° C. for 2 hours. After that, the number of the colonies of each gram negative bacterium was confirmed to compare and evaluate the antibiotic effect of each polypeptide. As a control group, the PBS treatment group (treating PBS in the same volume as the fusion polypeptide) was used.
In addition, the same test was performed by using the fusion polypeptide LNT103, and CecA-LNT101 at a concentration of 2 μM, and the result was shown in FIG. 15. For comparison, the same test was performed for groups treated with LNT102 or PBS.
On the other hand, in order to compare the antibacterial activity in case that a protein other than endolysin (LNT102 or LNT101) was fused to Cecropin A, the killing ability against gram negative bacterium of the fusion polypeptide LNT103 and cecropin A-EGFP fusion protein (a protein in which EGFP (GenBank Accession No. AAB02572.1) having no endolysin activity by replacing LNT102 in LNT103) was evaluated. For this, the proteins were treated in an amount of 0.2 μM or 2 μM, respectively, to perform the CFU reduction test. […] In particular, it could be confirmed that the CFU Counting result for all the tested gram negative bacterium killed all bacterium treated with 0, when LNT103 2 μM was treated.
Furthermore, the killing ability against gram negative bacterium according to the concentration and/or treatment time of the fusion polypeptide LNT103 was tested. Specifically, the fusion polypeptide LNT103 at a concentration of 0.1, 0.3, 0.9, or 2.7 μM and 1×10^6 CFU of Pseudomonas aeruginosa (PA01; ATCC 15692) or Acinetobacter baumannii (ATCC 19606) were added to reaction buffer (20 mM Tris-Cl, pH7.5) so that the final volume was 200 μl, and it was left at 37° C. for 2 hours, and then the number of the colonies was confirmed, and the result was shown in A of FIG. 17.
In addition, the fusion polypeptide LNT103 at a concentration of 2 μM and 1×10^6 CFU of Pseudomonas aeruginosa (PA01; ATCC 15692) were added to reaction buffer (20 mM pH7.5) so that the final volume was 200 μl, and in 0, 20 minutes, 40 minutes and 60 minutes at 37° C., the number of the colonies was confirmed, and the result was shown in B of FIG. 17. […]

Acinetobacter baumannii = assay: CFU reduction test
Procedure: (§2) In addition, that the LNT101 endolysin had the antibacterial ability in various gram negative bacterium was confirmed by a CFU reduction test, and the result was shown in Table 2 below.
as §1

Enterobacter cloacae = assay: CFU reduction test; details: E. cloacae CCARM 0252
From the text: as §2

Klebsiella aerogenes = assay: CFU reduction test; details: K. aerugenes CCARM 16006
From the text: as §2

B1: LNT103: fusion polypeptide [Cecropin A]-[linker (GSGSGS)]-[endolysin LNT102]; SEQ ID NO: 15 (MAS, His tag) used in the tests (protein)
chain: MASKWKLFKKIEKVGQNIRDGIIKAGPAVAVVGQATQIAKGSGSGSMGTVLKRGDRGSAVEDLQMKLNVAGYNLSADGIFGGDTEKAVRDVQAGAGLVVDGKVGPKTLYAIAKSATVPAKWEAIPFPTANKSRSAAMPTLNAVGAMTGVDSRLLATFASIESAFDYTVKAKTSSATGWFQFLDATWDDMIKAYGSKYGIPKDPTRALRKDPRANALMGAEFIKGNAAVLRPVINREPSDTDLYLAHFLGAGGAKKFLSADQKTLGEVLFPKPAKANPSIFSNKGVPRTLAEIYKLFEDKVSKHRALEHHHHHH
modifications: synthetic_Fusion Polypeptide LNT103 with MAS, His tag, and extra sequence
antibacterial activity (CFU reduction test) (gram negative bacterium; 0.2 μM or 2 μM (FIG. 16)): had excellent antibacterial activity | CFU reduction effect compared to LNT101 and LNT102 (gram negative bacterium; 2 μM, 2 hours, 37° C., 1×10^6 CFU of each gram negative bacterium): 1.5˜5.5 log CFU/ml | counting result (gram negative bacterium; 2 μM, all the tested bacterium (FIG. 15)): 0 log CFU/ml | CFU Counting result (gram negative bacterium; LNT103 2 μM, all the tested gram negative bacterium (FIG. 16)): 0 | killing ability (number of colonies) (gram negative bacterium; P. aeruginosa PA01 and A. baumannii ATCC 19606, 0.1-2.7 μM 2 hours, 2 μM 0-60 minutes, 1 μM 0-10 minutes): had the killing ability against gram negative bacterium in a concentration and time-dependent manner | CFU Counting result (Acinetobacter baumannii; Acinetobacter baumannii (ATCC 19606, ATCC 17978), 2 μM, 2 hours): 0 log CFU/ml

B2: LNT101: endolysin derived from bacteriophage PBPA90, amino acid sequence SEQ ID NO: 1 (259 aa), purified with 6× His tag (protein)
chain: MGTVLKRGDRGSAVEDLQMKLRVAGYAVSADGIFGGDTEKAVRDFQASKALVVDGKVGPATLAELAKSATVPAKWEAIPFPTANKSRSAAMPTLNAVGAMTGTDSRLLATFASIESAFDYTVKASTSSATGWFQFLDATWDDMIKAHGSKYGIPKDPTRALRKDPRANALMGAEFLKGNAAVLRPVINREPSDTDLYLAHFLGAGGAKKFLSADQKTLGEVLFPKPAKANPSIFSNKGVPRTLAEIYKLFEDKVSKHRA
modifications: 6xHis tag; synthetic_Endolysin LNT101
killing ability (number of colonies) (gram negative bacterium; 2 μM, 2 hours, 37° C., P. aeruginosa PA01, A. baumannii ATCC 17978, E. coli ATCC 8739, K. pneumoniae ATCC 13883, E. aerogenes CCARM 16006, S. enteritidis ATCC 13076): excellent killing ability compared to the control group | CFU reduction (Enterobacter cloacae): ◯ (‘◯’ means reduction of 0.5 log CFU or more through the CFU reduction assay) | CFU reduction (Klebsiella aerogenes): ◯ (‘◯’ means reduction of 0.5 log CFU or more through the CFU reduction assay) | CFU reduction (Acinetobacter baumannii; A. baumannii ATCC 2508): ◯ (‘◯’ means reduction of 0.5 log CFU or more through the CFU reduction assay) | CFU reduction (Acinetobacter baumannii; A. baumannii F4): ◯ (‘◯’ means reduction of 0.5 log CFU or more through the CFU reduction assay) | CFU reduction (Acinetobacter baumannii; A. baumannii F15): ◯ (‘◯’ means reduction of 0.5 log CFU or more through the CFU reduction assay)
